For this assay, the target named is HupA fused to a split luciferase fragment (positive control of the assay). The assay can be described thus: split reporter.

The values that follow come from article doi:10.1101/2021.07.28.454260.

Regarding “HupA fused to a split luciferase fragment (positive control of the assay) (natural protein)”, the increase in luminescence signal after 1 hour of induction is greater than 2.
